According to US20160040149A1, “Compositions Having Dicamba Decarboxylase Activity and Methods of Use” (priority 2013, published 2016):

Assay: Saturation mutagenesis of SEQ ID NO:109: dicamba decarboxylation activity of point mutants (CO2 released), fold of backbone (Tables 7, 8, Megatable 1)
Conditions: decarboxylation activity (CO2 released) of point mutant vs unmutated backbone protein; backbone SEQ ID NO: 109

Molecule | Fold Activity
78 (protein, listed as Marinobacter adhaerens) MALIDLHAHAPHPDYYDQHPHWGPAFELQSDGDIKLRVGHWVLSLGAPERKQALREAHARGETLDVQEYMAKWRDPEHRLASMDAAGQNAQVLSVPSHCYMYWAEPEFGVPFAKKVNDSLAEYCSAAPDRLMFWAHAPLNVPKEAAKEIRRACTELGAKGLVAGGSNFGGLEFDSPEMDPVWEALCDLDLPMFVHGYNQSVTWGEEANTDRYETTAIVGMNYDESKCFWYMINGGVFDRFPNLKVYITHGGGFVPYQLGRMAQTNPNLDTYHNKKPFLEYLKNFYFDVELHEVPMRQAMVEVIGADRVLYGSNFGGSDAVRHDLTDDLKLSQEDLDKIRWKNACDLLHLDPNKLGKVRG | 1.1 fold
79 (protein, Pyrenophora teres) MATTTTPSTLIATLESHLTPTLAFTSPTTSPTQPALHLIPPTTLTKLRNLGPGRVKDMHMLGHSRQIISHIPVAAPPQICSRFNDAIHAATMTNTAKFSVLAVLPTDGMEAAKELARCVSKYRFVGGVIGLNRGLRINGEGWEELWGLAERLRIPIMFREMWPLAFEIVDYQHHLPYSALGPILTQLHTSHTSSPLPLVRLYLSSVFDHYPSLRLVLAHPGSLPSLVPRIESLINSIPATDKPKRSFLDVWQHNIYLTTADAQDMSSLRALLEQIPVDRVLYASNYPFEERGNELMNELRESEFLTNIEWERVAWVNAETLFNLKEAGTKEARQLTTIPSSRS | 0.9 fold
80 (protein, listed as Cordyceps militaris) MAAASTPVVVDIHTHMYPPSYIAMLEKRQTIPLVRTFPQADEPRLILLSSELAALDAALADPAAKLPGRPLSTHFASLAQKMHFMDTNGIRVSVISLANPWFDFLAPDEAPGIADAVNAEFSDMCAQHVGRLFFFAALPLSAPVDAVKASIERVKNLKYCRGIILGTSGLGKGLDDPHLLPVFEAVADAKLLVFLHPHYGLPNEVYGPRSEEYGHVLPLALGFPMETTIAVARMYMAGVFDHVRNLQMLLAHSGGTLPFLAGRIESCIVHDGHLVKTGKVPKDRRTIWTVLKEQIYLDAVIYSEVGLQAAIASSGADRLMFGTDHPFFPPIEEDVQGPWDSSRLNAQAVIKAVGEGSSDAAAVMGLNAVRVLSLKAE | 0.8 fold
81 (protein, listed as Verticillium dahliae) MAASTKPKVVDIHTHMYPPSYIDILTSRTAIPVVRTFPQAADPRLILLDAEQQALDAALQDPTAKPPGRPLTSHYASLDQKIHFMDTHSIDISVVSLANPWLDFIEPKEAAATARSVNDEFEAMCASQPGRLFFFAALPLTAPLPALLEAVRHVAELEHCRGVILGTSGLGSGLDDPELVPVLEAVAAAALTVFLHPHYGLPNDVWGPRASAEYGHVLPLALGFPMETTIAVARMYLAGVFDRVPALRMLLAHSGGTLPFLAGRIESCILHDGQLVAEGKVGAARRTIWDVLREQVYLDAVIYSEIGLKAAIAASGGADRLMFGTDHPFFPPLGTDEQAKKESRINAGGSRPMITGNAMINGHGGLCNHITQSDYQDVVL | 1.2 fold
82 (protein, listed as Rhodopseudomonas palustris) MAQNETPVIAIEEHYWDPEMVARFPAGENASPFSTLLTELGDVRLRAMDEAGIDVQVLSHGAPAAQKLPPDVAPELTRRVNDRLAEACARFPNRFAAFAALPTPAPEAAARELERCVRDLGFKGAMIHGLTNGLFIDDKRFWPIFEVAEKLDVPIYLHPSVPHADVTRYYYDDYAREFPTVIRPAWGFTVETATQAIRLILSRALESYPRLQIILGHLGETLPFLLWRINQALARPGQTPLDFRKQFCDHFHVTTSGFFSTPALICTMLELGIDRIMFAVDYPYVVNRDGTDWVQQLQISPDDKRKLVGGNARRLLKL | 0.9 fold
83 (protein, listed as Mycobacterium rhodesiae) MALIALEEHYAWSPVSAGNVVGSWLETHNVTAYQRLYDRGPLRLEQMDAAGIDFQILSLFDPGVQDDDDTARAVENARRANDDLAETVRAAPDRFGGFATLAPQDPDAAAAELERAVGELGLVGGLINGHTHGRYLDDPAYLGLFECAQRLGVPIYLHPTTPHPAVMDAWFAPYVKDGLHLASWGFAAETGTHALRLIYSGLFDTFPRLQMILGHLGEMLPYAAYRIDRYYGLGGGDDGGRLARLPSEYLRDNFHVTTSGNFNPVAFACALDVMGPDRLMFSVDYPMDDNVTGAEFLRNLEVDDDVRRKVAGENALQLFGDKIPRR | 1.9 fold
84 (protein, listed as Mycobacterium rhodesiae) MASLIALEEHYAWDPASEGNVVATWLRANNGVAYDRLYDRGPLRIEQMDAAGIDFQILSLFDPGVQDEVDAVRAVDLARRANDDLAESVRANPSRFGGFATLATQQPDAAVAEFDRAVTELGLVGGLINGHCQGRYLDDPAYEALFSRAEALGAPIYLHPTTPHPAVMDAWFAPYVGDGLHLASWGFAAETGTHVLRLIYSGLFDKFPRLQMIIGHLGEMLPFAAYRIDRYYGLGGGGTGHTLQHLPSDYLRNNFHVTTSGNFCSPALDCTLDVMGADRVMFSVDYPMDDNQTGADFLASYPMDDTNRRKVASENALRLFGDRIPAALRN | 1 fold
85 (protein, listed as Maritimibacter alkaliphilus) MAADRKPGLVSVEEGFMIPEVVAELSRIAGGVPSMKSGPIAGPFMDDLLDIGKGRVARMDADGVAVQILALAAPGVQKFDPDTALALSRLTNDRLAEAIAAHPARFGGLAAAPPQAAREGAKELDRAITTLGLNGLIVNSHTNDLYLDDPSFWPLLEAAEALDVPVYLHPREPAAGIEGGLMAMTGFTVGWAYAVETGTHLLRMIAAGVFDRFPRLRIVLGHLGEMIPFMLDRIDNRYPFEMGVTGAKPLPRKPSDYFRDHVTVATSGMNFNAPMRAAIEVLGADKVMFAADYPMERQDEEVAKFAALDLTPDERKRIGEDNARRVFGL | 1.4 fold
4 (protein, listed as Lactobacillus buchneri) MAKVITLEEHFSSQKLGQKMAEVLPKRPIGNVSPKMQDYMQRSLPPEAELEDVTGSRIQWMDQHQISMQILSYGNQNPQNSDPKFAVELTKLANDELAKAVAKAPDRFRAFASLPVSHPTDAAAELKRGVEELGFKGAMLVRPTSQAHPFFDDPFYLPIFEAAANLNVPVYLHPSFPDSQIIDYYYSNGPWDDKVSGILGTAGYGWHTDVGIQTVRLLLSGVFEKYPNLKLISGHWGEFASFALERMDQVMYPETNLSEPISKIYRDHVYVTPSGILTEPQLKFVKDEVGIEHLLYSIDYPYIKPENSGSFIESSPLTDEEKELFAHGNAEKLLQL | 1 fold
86 (protein, listed as Sphingopyxis alaskensis) MALGASVASREASAQMAKAPMRKIATEEAFATPELAKAWLEIARSEPNSSLDIPTGILSIFDNPRPGSNQDRFRRQLLDVDAERIRDMDEAGVDMQLLSVTIPGVQIFEPARAGELAVTTNDHLAAAIARRPTRFAGLACFAPHDPVQATREMERAVNALGLKGFIVNSHTQDLYLDDPRFAPVLEAAQSLDCPIYLHPRAPSNGMAAPFRDYSMGGSIWGFGVEAGTHAVRMILSGVFDRYPRLRIVLGHMGEALPFWMWRLDHMAARRAKDGRMKPLSLAPSEYFKRNFAVTTSGFESPDVLDLVIKVAGIENIMWAIDYPYESSRDAVTFIEGADLTASQRASIFHRNAVRHFRLS | 1.4 fold
87 (protein, listed as Novosphingobium sp.) MASDIATAADLQTGGRQGYLRIATEEAFATRDQIDVYLRMVRDGTADRGMTSLWGFYAQSPSARATQIIERLLDLGEQRLADMDAAGIDKAVLALTSPGVQPLLDMEEARRIAGNANDRLAERCAAHPDRFIGMTAVAPQDPQWSAREILRGATQLGFKGVQINSHTQGRYLDEPFFDPIFRALGDVGQPLYIHPGTPPDSMIGPLLDAGLDGAIYGFGVETGMHLLRLITAGIFDRYPDLQIMVGHMGEALPYWLYRLDYMHQAGIRSQRYERMRPLKRTIAGYFRSNVLVTCSGMAWEPAIQFARQVMGEDRVMYAMDYPYQYEADEVRALDVMDLSPESKRKFFQTNAERWFDL | 1.4 fold
88 (protein, listed as Starkeya novella) MARKIALEEHFTTPELAGKYVARPTQSDALFADIERRLADFDELRLEMMDRAEIDLMVLSVTTPGVQGVRDTGEAIRLARGANDFLAREVQKRPSRYAGFAHLAMQDAEAAATELERAVRELGFRGALINGQTNGHYLDEDQYAPFWERVQELDVPVYLHPGNMADSPAMFAHRPELGGPIWAWTAETAAHALRLVFGGTFTRFPGAKVILGHMGETLPFLLWRLDSRREFDLGEKLAPDALPSAIIKRNIAVTTSGVCDPAPLVAALQALSDDNVMFSVDYPYEDPQLASKFIETAPIGEETRAKVCHGNAERLLGL | 1.3 fold
89 (protein, listed as Erwinia billingiae) MATNRRDFLKNATAVMAGSTVFAGSSHFASAAAVEPAAVQPPRRIIALEEHFMLPEFVGYLHETQQNLRNGLVDKVVTPLSDFGKGRLEIMDKNGVDFAVLSLSGPGVQAEPDRVKAVRLARYANDKLATEMQKNPRRYGGFAHLAMQDPLAAANELERCVKQLHMQGGMINGETDGLYLDDRRYDVFWERVEALNVPIYIHPGNPPDYPHMFAGHPEMWGPVWSWAVETCSHALRLIFSGTFDRYPGARVILGHMGETLPIQLWRLDSRYQIANQTFAIKHPPSWYAKKNITITTSGVCNDAALRCALDSMGSENVMFSIDYPFESTEIAVNWLKTANITEQERNAVAWGNATSILRLGA | 3.1 fold
90 (protein, Pyrenophora tritici-repentis) MAATIDRVLYLGNATQRRYTSATVSVPRIFGKVALEEHVGTSIWAKYNLTPPANAVVGVLNRPPTLPNTLDTIARLDDINGRLSSMNHSGIGYVIVSLSSPGIQGVHDTALAIKFSTDINDELYLKYANAYPDKFAFFATVPMQDPVAAASELERAVSLLGAKGAAINGYTDIGPPGNSTTRYLDDPINAPFWSKVAALNVPIYLHPRAPPPSQQLVYNYPNNSLSAYPGLVTGGFAYGAETAVHALRLMLSGLFDTHPNIQIILGHAAEGLPFLIHRSDTQLAAEVPGTNGPYKRPLRYYLRNNFYATLSGVRRLSTTQCTLAEMGEERVLFSVDYPFQSNEDAADWFDGVEGMSVETKRKVARGNARRLFNLTVDLDERQIDGDFM | 1.7 fold
91 (protein, listed as Botryotinia fuckeliana) MASFVCNFGKAALATLLLTPSISAADYTPQETVLNSGRPTFYDASTSIPGKIALEEHVGNDLLNGLYTVPYYPNTNEPQYSDSVYIADVGEKMLDIPSRIANMDAANISISVLTFGGPGIQGVFNATYATYAAGYVNDYLYKNYKNNANYTGRFEFWCSNALQEPSKAATELERCVKELGGVGSFVGGYTNNGGINGTANDIVYLDDPSMEPFLEKVVELDVPIYLHPRMPAPSQLLSVKGYEFLGSSPWGFSSETGAHALRLMVSGTLDKYPTLKIVLGHCGEGLPFFLPRIDQRLRHFKKELFNNTLTMEEYWLRNFYVTTAGVQDAGTLVDTIKRTGEDRVMFSVDYPFEDTVEIAGWFDRLEMNTLTKTKLAYENAKALLKLTCYVDAEKRPRIFNKHHVDDIIKHTHSPCIWTLFH | 1.6 fold
